Data taken from PMC3325613.

Tests used:
[1] = target: HIV-1 capsid protein C-terminal domain, CTD (144–231) (HIV-1) (UniProt P12493); test: ITC
[2] = target: HIV-1 capsid protein C-terminal domain, CTD (150–231) (HIV-1) (UniProt P12493); test: ITC

Substance | Kd [1] [µM] | Kd [2] [µM]
HIV-1 capsid protein C-terminal domain, CTD (144–231) (from UniProt P12493 276-363) (domain or fragment) | 2.5 | 
HIV-1 capsid protein C-terminal domain, CTD (150–231) (from UniProt P12493 282-363) (domain or fragment) |  | 11
